From US20140154243A1 (Amgen, published 2014) come the findings set out here.

In general, IC50 refers to the concentration needed to halve the response being measured. A higher IC50 goes with weaker potency. The Kd is the concentration at which binding is half-saturated. The term koff denotes the first-order rate constant of dissociation. Usually kon stands for the rate constant with which the complex forms.

Assay [1] deals with T1, human hepatocyte growth factor (HGF) (human, UniProt P14210 32-728).
T1 construct: Recombinant protein; The mature protein is a heterodimer of the alpha and beta subunits; also called human HGF; full length HGF
T1 sequence (P14210 32-728 limits assumed): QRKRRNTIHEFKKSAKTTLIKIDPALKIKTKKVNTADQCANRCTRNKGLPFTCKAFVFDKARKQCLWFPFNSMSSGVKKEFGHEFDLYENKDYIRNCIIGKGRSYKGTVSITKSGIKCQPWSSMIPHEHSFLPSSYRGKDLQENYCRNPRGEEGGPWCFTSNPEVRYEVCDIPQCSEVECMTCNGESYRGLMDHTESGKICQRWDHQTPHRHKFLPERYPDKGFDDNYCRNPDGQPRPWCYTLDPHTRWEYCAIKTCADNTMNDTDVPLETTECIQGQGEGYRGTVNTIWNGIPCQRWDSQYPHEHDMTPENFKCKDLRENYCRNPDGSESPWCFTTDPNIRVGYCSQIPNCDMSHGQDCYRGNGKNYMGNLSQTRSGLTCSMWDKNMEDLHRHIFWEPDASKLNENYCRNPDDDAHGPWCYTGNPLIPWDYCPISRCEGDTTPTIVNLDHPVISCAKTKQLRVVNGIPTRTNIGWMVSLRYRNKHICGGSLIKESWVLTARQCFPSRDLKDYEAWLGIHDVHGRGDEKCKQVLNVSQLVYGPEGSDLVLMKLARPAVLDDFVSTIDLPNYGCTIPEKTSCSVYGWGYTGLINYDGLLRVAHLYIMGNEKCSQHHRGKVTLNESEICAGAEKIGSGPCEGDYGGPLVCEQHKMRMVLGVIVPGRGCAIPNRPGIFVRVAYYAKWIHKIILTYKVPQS
Description: neutralization ELISA (left table): inhibition of the binding of soluble Met (2 nM) to plate-coated HGF, detected with biotinylated anti-cMetR antibody and Eu-streptavidin; column head 'IC50 IP (nM)'. As to the method:
A neutralization ELISA assay was developed to assess whether the antibodies discussed in Example 6 could interrupt Met-HGF binding. Delphia 96-well plates (Cat#: AAAND-0001, Wallac Inc., Gaithersburg, Md.) were coated with HGF by adding 100 μl of HGF at 6.25 μg/ml per well. The plates were incubated at 37° C. for 1 hour or at 4° C. overnight. The plates were then blocked with 5% BSA (Cat#50-61-00, KPL, Gaithersburg, Md.) in PBS containing 0.1% Tween 20 for 1 hour at room temperature with shaking.
Test samples were prepared by separately mixing soluble Met (2 nM, 0.256 μg/ml) with different concentrations of a particular antibody to HGF being tested. The concentrations tested were: 667 nM, 223 nM, 74.1 nM, 24.7 nM, 8.2 nM, 2.7 nM, 0.91 nM, 0.30 nM, 0.10 nM, and 0.034 nM. A volume of 100 μl of a test sample was added to each well of the plates. The plates were then incubated at 4° C. overnight and then washed 4 times with PBS containing 0.1% Tween 20. Next, 100 μl per well of Biotinylated anti-cMetR antibody (Cat#: BAF358, R&D Systems Inc., Minneapolis, Minn.) at 2 μg/ml, was added. […] The plates were then incubated for 2 hours with shaking, and were washed 4 times with PBS containing 0.1% Tween 20. Eu-streptavidin (1:1000 dilution in Assay buffer) (Cat#1244-360, Wallac Inc., Gaithersburg, Md.) was added and the plates were shaken at room temperature for 1 hour. The plates were then washed 4 times with PBS containing 0.1% Tween 20. Next, 100 μl of enhancement buffer (Wallac Inc., Cat#: 1244-105, Gaithersburg, Md.) was added. After at least for 5 minutes, the plates were read using Europium method on Victor 2 (1420 Multilabel Counter, Wallac Inc., Gaithersburg, Md.).
Percent inhibition of Met binding to HGF (i.e. neutralization) was calculated and IC₅₀ values were determined using the 4 parameter fit equation Excelfit, Version 2.0.6, (Microsoft Inc, Seattle, Wash.). In the presence of the antibodies to HGF discussed in Examples 6, Met binding to HGF was neutralized.
In general terms: In an ELISA, binding on a coated surface is turned into a signal by an enzyme label.

In assay [2] the target is T1, human hepatocyte growth factor (HGF). Description: BIAcore 3000, kinetic method: antibody captured on immobilized Protein G, human HGF (0-100 nM) injected. An excerpt:
The running buffer for those analyses was PBS with 0.005% P20 surfactant (BIAcore, Inc. Piscataway, N.J.). Recombinant Protein G (Pierce, Rockford, Ill.) was immobilized to a research grade CM5 sensor chip (Biacore, Inc. Piscataway, N.J.) via primary amine groups using the Amine Coupling Kit (Biacore, Inc. Piscataway, N.J.), according to the manufacturer's instructions.
In six separate samples, about 200 resonance units (RU) of each of the six antibodies to HGF was separately attached to immobilized Protein G following the manufacturer's instructions. Samples comprising various concentrations (0-100 nM) of human HGF were injected over the bound antibody surface at a flow rate of 50 μl/min for 3 minutes. Antibody binding kinetic parameters including kₐ (association rate constant), kd (dissociation rate constant), and KD (dissociation equilibrium constant) were determined using the BIA evaluation 3.1 computer program (BIAcore, Inc. Piscataway, N.J.). Lower dissociation equilibrium constants indicate greater affinity of the antibody for HGF.
Background: Surface plasmon resonance follows binding to a sensor surface in real time, without labels.

The target of the next assay is T2, mouse HGF (mouse, UniProt Q08048 33-728).
T2 construct: also called recombinant mouse HGF; mHGF
T2 sequence (Q08048 33-728 limits assumed): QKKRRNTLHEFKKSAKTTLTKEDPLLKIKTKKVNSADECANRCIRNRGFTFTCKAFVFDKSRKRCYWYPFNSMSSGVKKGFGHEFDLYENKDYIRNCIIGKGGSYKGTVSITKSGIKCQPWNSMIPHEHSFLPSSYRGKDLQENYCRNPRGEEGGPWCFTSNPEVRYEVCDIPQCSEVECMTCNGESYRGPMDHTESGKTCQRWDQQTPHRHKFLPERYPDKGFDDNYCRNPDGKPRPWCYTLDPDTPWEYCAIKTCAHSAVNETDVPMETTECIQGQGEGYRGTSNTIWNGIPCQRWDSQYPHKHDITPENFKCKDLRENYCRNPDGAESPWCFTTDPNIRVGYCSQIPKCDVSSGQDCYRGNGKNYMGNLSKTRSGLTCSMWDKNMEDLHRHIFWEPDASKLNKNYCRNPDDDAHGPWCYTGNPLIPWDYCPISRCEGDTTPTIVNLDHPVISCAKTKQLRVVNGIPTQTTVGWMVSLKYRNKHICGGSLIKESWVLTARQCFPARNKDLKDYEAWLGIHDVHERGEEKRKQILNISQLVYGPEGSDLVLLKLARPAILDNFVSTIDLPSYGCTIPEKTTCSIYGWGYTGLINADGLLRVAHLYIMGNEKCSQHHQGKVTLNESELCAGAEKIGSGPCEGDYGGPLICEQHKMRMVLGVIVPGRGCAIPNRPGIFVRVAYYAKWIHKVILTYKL
The experiment in a line: FACS bead assay: antibody incubated with the avidin fusion of mouse HGF, captured on biotin-coated beads; FITC anti-avidin (x) against PE goat anti-human F(ab')2 (y). On the procedure: After incubation, the fusion proteins in each sample were separately captured using biotin-coated beads (Spherotech Inc., Libertyville, Ill., Cat # TP-60-5). The resulting bead-protein complexes were labeled by adding FITC labeled anti-avidin antibody (Vector Lab, Burlingame, Calif., Cat. # SP-2040). The presence of antibodies to HGF was determined by adding phycoerythrin (PE) labeled goat anti-human F(ab′)2 antibody (Southern Biotech Associates, Inc, Birmingham, Ala., Cat #2043-09).
Those samples were then subjected to Fluorescence Activated Cell Sorter (FACS) analysis. Bead complexes labeled by FITC (which indicated the presence of avidin) and/or PE (which indicated the presence of antibody to HGF) were detected on a Becton Dickinson Bioscience FACScan (BD, Franklin Lakes, N.J.).

The target in assay [3] is T1, human hepatocyte growth factor (HGF). The experiment in a line: cell-based or functional assay.
Assay [4] has the same target. The experiment in a line: BIAcore 3000, equilibrium/solution method: antibody (0.01-50 nM) incubated with human HGF (0.05 nM and 1 nM), free HGF measured on a chip carrying the same antibody. As to the method:
That method was performed with a BIAcore®3000 (Biacore, Inc., Piscataway, N.J.) using PBS with 0.005% P20 surfactant (BIAcore, Inc. Piscataway, N.J.) as running buffer. The four antibodies to HGF were separately immobilized to research grade CM5 sensor chips (Biacore, Inc. Piscataway, N.J.) via primary amine groups using an Amine Coupling Kit (Biacore, Inc. Piscataway, N.J.) following the manufacturer's instructions.
In separate assays, each of the four antibodies to HGF, over a range of concentrations (from 0.01 nM to 50 nM) was separately incubated with each of two different concentrations (0.05 nM and 1 nM) of human HGF in PBS with 0.005% P-20 and 0.1 mg/mL BSA at room temperature for at least six hours. Each of those samples was then injected over a surface of a CM5 sensor chip onto which the same antibody to HGF had been immobilized. The binding signal obtained was proportional to the free HGF in solution. The dissociation equilibrium constant (KD) was obtained from nonlinear regression analysis of the competition curves using a dual-curve one-site homogeneous binding model (KinExA software, Sapidyne Instruments Inc., Boise Id.).

Bounds are passed on as bounds.

B1: antibody 2.4.4 (antibody, human IgG2, kappa, V domains shown)
VH: QVQLKESGPGLVKPSQTLSLTCTVSGGSISSGVYYWSWIRQHPGKGLEWIGYFYYSGNTYHNPSLKSRVTISVDTSKNQFSLKLSSVTAADTAVYYCARDRSGYDHPDAFDIWGQGTMVTVSS
VL: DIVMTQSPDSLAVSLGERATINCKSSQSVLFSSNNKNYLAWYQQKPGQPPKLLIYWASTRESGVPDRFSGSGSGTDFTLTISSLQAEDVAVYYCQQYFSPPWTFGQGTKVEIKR
notes: also called FITC-labeled antibody 2.4.4
Regarding B1, in assay [1], the IC50 was found to be 5100 pM. Further, in assay [2], the Kd is approximately 99 pM, the off-rate constant (koff) stood at 2.7e-05 s⁻¹ and the kon turned out to be 270000 M⁻¹ s⁻¹. Further, the binding result with mouse HGF was “no binding”. Moreover, the “IC50, inhibition of growth/survival of U-87 MG cells” value in assay [3] is less than 100000 pM. The same molecule returned a Kd in assay [4] of less than 10 pM.

B2: antibody 2.12.1 (antibody, human IgG2, kappa, V domains shown)
VH: QVQLQESGPGLVKPSETLSLTCTVSGGSISIYYWSWIRQPPGKGLEWIGYVYYSGSTNYNPSLKSRVTISVDTSKNQFSLKLNSVTAADTAVYYCARGGYDFWSGYFDYWGQGTLVTVSS
VL: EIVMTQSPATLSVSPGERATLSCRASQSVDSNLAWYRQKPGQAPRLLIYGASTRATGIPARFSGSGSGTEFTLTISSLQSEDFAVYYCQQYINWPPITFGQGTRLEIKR
In assay [1], B2 gave an IC50 of 2100 pM. In assay [2], this molecule registered a Kd of approximately 220 pM, a koff of 2.8e-05 s⁻¹ and a kon of 130000 M⁻¹ s⁻¹. Besides, in the assay with mouse HGF, the binding result was “no binding”. Besides, the “IC50, inhibition of growth/survival of U-87 MG cells” value in assay [3] is less than 100000 pM. Further, the Kd in assay [4] came to 54 pM.
